Data as given in paper PMC13598245, “A complex of MAST1 and 14-3-3η regulates Tau phosphorylation in the developing cortex” (Proceedings of the National Academy of Sciences of the …, 2026).

B1: GST-tagged 14-3-3η (coexpressed with MAST1^DK) (natural protein, UniProt Q04917 1-246, looked up)
chain: MGDREQLLQRARLAEQAERYDDMASAMKAVTELNEPLSNEDRNLLSVAYKNVVGARRSSWRVISSIEQKTMADGNEKKLEKVKAYREKIEKELETVCNDVLSLLDKFLIKNCNDFQYESKVFYLKMKGDYYRYLAEVASGEKKNSVVEASEAAYKEAFEISKEQMQPTHPIRLGLALNFSVFYYEIQNAPEQACLLAKQAFDDAIAELDTLNEDSYKDSTLIMQLLRDNLTLWTSDQQDEEAGEGN
notes: 14-3-3 protein eta
B2: 14-3-3η (purified, recombinant) (natural protein, UniProt Q04917 1-246, looked up)
chain: B1 chain
notes: 14-3-3 protein eta; also called purified 14-3-3η; source: purified recombinant

Target: the molecule itself
Test: cross-linking + other: mass photometry; complex stabilised by glutaraldehyde cross-linking, then mass photometry (25 to 50 nM, 50 mM HEPES pH 7.4, 150 mM NaCl, 1 mM TCEP)

Protein	stoichiometry N
B1	2
B2	2
